Test results taken from US20190127473A1 (Dana-Farber, published 2019).

Tests used:
human galectin-1 (Gal1) = molecular target: T1, human galectin-1 (Gal1) (human, UniProt P09382 2-135); test: SPR (BIAcore 3000, 25 C, HBS-EP), 8F4 captured by anti-mouse antibody on CM-5 chip, galectin as analyte, 1:1 Langmuir fit; rhGal1 as analyte; ~250 RU of 8F4 captured
T1 construct: Used as recombinant protein bought from R&D Systems (SPR) and as endogenous protein in L428 cell lysate (Western blot); also called hGal1; rhGal1
T1 sequence (P09382 2-135 limits assumed): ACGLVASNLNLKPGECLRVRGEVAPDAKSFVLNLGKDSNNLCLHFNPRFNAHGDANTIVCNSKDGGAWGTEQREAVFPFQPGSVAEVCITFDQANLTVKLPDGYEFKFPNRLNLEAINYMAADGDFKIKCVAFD
Procedure: (§1) Surface Plasmon Resonance (SPR) analyses (also called Biomolecular Interaction Analysis, BlAcore) were also conducted in order to further define the biophysical properties (e.g., kₒₙ, koff, koffkₒₙ (KD) of Gal1's interaction with the 8F4 mAb. SPR experiments were performed at 25° C. in the standard BlAcore running buffer HBS-EP on a BlAcore 3000 Instrument (BlAcore). In brief, anti-mouse antibody was first captured on the CM-5 sensor chip (GE HealthCare). Afterwards, approximately 250 response units (RU) of the 8F4 anti-Gal1 mAb were immobilized (with exception of ˜350 RU for rmGal1 assay) and followed by various dilutions of recombinant galectin (human galetin-1, 2, 3, 4, 7, 8, 9 or murine galectin-1 (mGal1), from R&D Systems) to assess the binding of galectin to 8F4. All data are shown after subtraction from a channel loaded with buffer alone. Data analysis to obtain the binding curves shown and equilibrium dissociation constant (KD) was performed using BlAevaluation 3.1 (BlAcore) by globally fitting the data to a simple 1:1 (Langmuir) binding model.

[1] = molecular target: T2, recombinant human galectin-2 (human, UniProt P05162 2-132, limits assumed); test: SPR (BIAcore 3000), 8F4 captured by anti-mouse antibody on CM-5 chip, galectin as analyte
T2 construct: Bought; also called Gal2; Ga12 (so in the source)
T2 sequence (looked up): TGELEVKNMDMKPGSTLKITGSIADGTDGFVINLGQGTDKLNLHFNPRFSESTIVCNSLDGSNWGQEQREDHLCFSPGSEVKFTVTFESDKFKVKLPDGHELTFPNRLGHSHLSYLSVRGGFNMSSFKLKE
Procedure: as §1

[2] = molecular target: T3, recombinant human galectin-7 (human, UniProt P47929 2-136, limits assumed); test: as above
T3 construct: Bought; also called Gal7; Ga17 (so in the source)
T3 sequence (P47929 2-136 limits assumed): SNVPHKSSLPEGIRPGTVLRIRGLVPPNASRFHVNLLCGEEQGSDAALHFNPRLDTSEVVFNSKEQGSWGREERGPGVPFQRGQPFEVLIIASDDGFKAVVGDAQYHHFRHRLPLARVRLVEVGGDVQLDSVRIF
Procedure: as §1

[3] = molecular target: T4, recombinant human galectin-3 (human, UniProt P17931 2-250); test: as above
T4 construct: Bought; also called Gal3; Ga13 (so in the source)
T4 sequence (P17931 2-250 limits assumed): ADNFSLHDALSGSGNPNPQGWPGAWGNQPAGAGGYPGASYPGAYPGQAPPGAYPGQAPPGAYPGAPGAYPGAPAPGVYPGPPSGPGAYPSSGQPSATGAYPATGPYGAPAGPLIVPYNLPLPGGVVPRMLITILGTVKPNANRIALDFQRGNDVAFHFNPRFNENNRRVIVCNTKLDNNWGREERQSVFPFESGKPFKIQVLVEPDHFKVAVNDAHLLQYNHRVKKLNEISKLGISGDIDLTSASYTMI
Procedure: as §1

[4] = molecular target: T5, recombinant human galectin-4 (human, UniProt P56470 2-323, limits assumed); test: as above
T5 construct: Bought; also called Gal4; Ga14 (so in the source)
T5 sequence (looked up): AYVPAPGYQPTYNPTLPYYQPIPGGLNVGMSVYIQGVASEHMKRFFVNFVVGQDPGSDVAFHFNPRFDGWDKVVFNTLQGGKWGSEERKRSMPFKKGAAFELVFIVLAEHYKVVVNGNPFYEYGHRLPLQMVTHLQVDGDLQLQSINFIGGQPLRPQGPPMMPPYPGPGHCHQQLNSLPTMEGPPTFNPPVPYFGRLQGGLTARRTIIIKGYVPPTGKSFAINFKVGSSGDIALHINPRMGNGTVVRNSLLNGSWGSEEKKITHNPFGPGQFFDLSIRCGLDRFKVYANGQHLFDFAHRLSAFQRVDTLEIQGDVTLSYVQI
Procedure: as §1

[5] = molecular target: T6, recombinant human galectin-9 (human, UniProt O00182-2 2-323, limits assumed); test: as above
T6 construct: Bought; also called Gal9; Ga19 (so in the source)
T6 sequence (O00182 other isoform, or with tags, fused parts or gaps limits assumed): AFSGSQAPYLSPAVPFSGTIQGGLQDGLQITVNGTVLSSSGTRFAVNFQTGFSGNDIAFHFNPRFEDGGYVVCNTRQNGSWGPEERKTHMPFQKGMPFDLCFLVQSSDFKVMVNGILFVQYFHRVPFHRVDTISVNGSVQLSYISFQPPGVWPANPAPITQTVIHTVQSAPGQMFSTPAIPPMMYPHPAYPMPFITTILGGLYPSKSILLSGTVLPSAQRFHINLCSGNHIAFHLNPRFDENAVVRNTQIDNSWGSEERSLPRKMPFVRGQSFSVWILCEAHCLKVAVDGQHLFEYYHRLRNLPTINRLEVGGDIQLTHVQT
Procedure: as §1

[6] = molecular target: T7, recombinant human galectin-8 (human, UniProt O00214 1-317, limits assumed); test: as above
T7 construct: Bought; also called Gal8; Ga18 (so in the source)
T7 sequence (looked up): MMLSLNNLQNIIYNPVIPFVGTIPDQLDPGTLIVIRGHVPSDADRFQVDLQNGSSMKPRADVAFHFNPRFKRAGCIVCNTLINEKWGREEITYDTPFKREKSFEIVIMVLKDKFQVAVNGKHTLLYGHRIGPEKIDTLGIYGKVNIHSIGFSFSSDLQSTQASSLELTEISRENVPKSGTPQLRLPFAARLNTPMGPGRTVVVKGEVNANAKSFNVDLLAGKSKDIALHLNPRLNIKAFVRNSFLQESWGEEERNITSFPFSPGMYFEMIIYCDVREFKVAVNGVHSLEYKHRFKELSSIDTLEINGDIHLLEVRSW
Procedure: as §1

mouse galectin-1 (Gal1) = molecular target: T8, mouse galectin-1 (Gal1) (mouse, UniProt P16045 2-135); test: SPR (BIAcore 3000, 25 C, HBS-EP), 8F4 captured by anti-mouse antibody on CM-5 chip, galectin as analyte, 1:1 Langmuir fit; rmGal1 as analyte; ~350 RU of 8F4 captured
T8 construct: Used as recombinant protein bought from R&D Systems (SPR) and as endogenous protein in B16-F10 cell lysate (Western blot); also called mGal1; rmGal1
T8 sequence (P16045 2-135 limits assumed): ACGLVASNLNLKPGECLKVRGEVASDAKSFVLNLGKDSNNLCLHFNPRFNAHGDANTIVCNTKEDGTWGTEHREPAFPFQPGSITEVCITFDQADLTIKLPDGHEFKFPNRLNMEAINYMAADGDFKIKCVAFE
Procedure: as §1

Kd (human galectin-1 (Gal1)): 13 nM
binding result [1]: no binding
binding result [2]: no binding
binding result [3]: no binding
binding result [4]: no binding
binding result [5]: no binding
binding result [6]: no binding
Kd (mouse galectin-1 (Gal1)): 38.5 nM
B1: 8F4 anti-Gal1 monoclonal antibody (antibody, V domains shown)
VH: EVQLQQSVAEFVRPGASVRLSCTASGFNIKNTYIHWVRQRPEQGLEWIGKIDPANGNTKYVPEFQGKATMTADTSSNTVYLHLSSLTSEDTAIYYCVDGYYGWYFAVWGTGTTVTVSS
VL: QAVVTQESALTTSPGETVTLTCRSSTGAVTTSNYANWVQEKPDHLFTGLIGATNNRAPGVPARFSGSLIGDKAVLTITGAQTEDEAIYFCALWYRNHFIFGSGTKVTVL
notes: Hybridoma monoclonal antibody; The light chain is lambda; Hybridoma 8F4.F8.G7 is deposited as ATCC PTA-10535; also called 8F4 mAb; 8F4.F8.G7
